Columns and labels:
[1] = molecular target: ePTEN-GFP (expressed in HEK293) (human) (UniProt P60484); assay: co-IP; PTEN-GFP constructs from HEK293 lysates held on anti-GFP beads (two hours), then 400 ul whole-cell lysate of HEK293 expressing HA-NEDD4-1 added for three hours; three washes; blots with anti-GFP and anti-HA; band intensity quantified (n = 3)
[2] = molecular target: nPTEN-GFP (expressed in HEK293) (human) (UniProt P60484); assay: as above

increase of co-precipitated NEDD4-1 against GFP alone and wild-type PTEN-GFP [1]: 2.5
increase of co-precipitated NEDD4-1 against GFP alone and wild-type PTEN-GFP [2]: 2.5
Substance: HA-NEDD4-1 (from UniProt P46934 1-1319) (enzyme)

Reference: paper PMC4517176
